Where a chain is given by its changes, count along the chain named.
B1: humanized anti-human IL-1α antibody H3D12.8 (antibody, from a related filing, human IgG1, V domains shown)
VH: EIQLVQSGSELKKPGASVKVSCKASGYTFTNYGMNWVRQAPGQDLERMAWINTYTGESTYADDFKGRFVFSLDTSVSTAYLQISSLKAEDTAVYFCARGIYYYGSSYAMDYWGQGTTVTVSS
VL: DIQMTQSPSSLSASVGDRVTITCRASQDISNCLNWYQQKPGKTPKLLIYYTSRLHSGVPSRFSGSGSGTDYTFTISSLQPEDIATYFCQQGKTLPYAFGQGTKLEIK
B2: humanized anti-human IL-1α antibody H3D12.r10 (antibody, from a related filing, human IgG1, V domains shown)
VH: EIQLVQSGAEVKKPGASVKVSCKASGYTFAHYGMNWVRQAPGQGLEWMGWINTYTGQSTYADDFKGRFTFTLDTSTSTAYMELSSLRSEDTAVYYCARGIYYFGSNYAMDYWGQGTTVTVSS
VL: B1 VL with C32M, H55R, T93K, L94P, A97T
B3: humanized anti-human IL-1α antibody H3D12.r16 (antibody, from a related filing, human IgG1, V domains shown)
VH: B2 VH with I2V, A30K, H31Y, W47R, F68V, G99D, F103Y, N106D, Y107F
VL: B1 VL with C32M, T43A, H55K, S56P, L94A, A97T
B4: humanized anti-human IL-1α antibody H3D12.r37 (antibody, from a related filing, human IgG1, V domains shown)
VH: B2 VH with A30K, H31Y, W47R, Q57E, T59R, F68V, G99D, N106D
VL: B1 VL with C32R, T43A, T51A, H55K, S56P, K92N, L94P, A97T
B5: humanized anti-human IL-1α antibody H3D12.16 (antibody, from a related filing, human IgG1, V domains shown)
VH: B2 VH with A30T, H31N, G44D, W47R, G49A, Q57E, Y95F, F103Y, N106S
VL: B1 VL
B6: anti-human IL-1α monoclonal antibody 3D12 (antibody, from a related filing, V domains shown)
VH: QIQLVQSGPELKKPGETVKISCKASGYTFRNYGMNWVKQAPGKDLKRMAWINTYTGESTYADDFKGRFAFSLETSASTAYLQINNLKNEDTATYFCARGIYYYGSSYAMDYWGQGTSVTVSS
VL: IQMTQTTSSLSASLGDRVTISCRASQDISNCLNWYQQKPDGTVKLLIYYTSRLHSGVPSRFSGSGSGTDYSLTISNLEQEDIATYFCQQGKTLPYAFGGGTKLEINR

What follows are binders tested against T1, recombinant human IL-1α (human) (UniProt P01583) (assay: cell-based or functional assay).
T1 sequence: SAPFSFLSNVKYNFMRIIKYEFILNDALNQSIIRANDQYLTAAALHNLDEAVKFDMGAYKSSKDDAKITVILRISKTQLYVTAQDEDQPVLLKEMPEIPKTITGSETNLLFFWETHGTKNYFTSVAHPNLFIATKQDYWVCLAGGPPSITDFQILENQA

Question: For B1, which Neutralization Potency (IC50, pM), MRC-5 bioassay (IL-8 production) is on record?
Answer: 1950 pM

Question: Which Neutralization Potency (IC50, pM), MRC-5 bioassay (IL-8 production) does the source give for B2 here?
Answer: 0.6 pM

Question: With B3 as the binder, how does the Neutralization Potency (IC50, pM), MRC-5 bioassay (IL-8 production) read?
Answer: 0.6 pM

Question: With B4 as the binder, how does the Neutralization Potency (IC50, pM), MRC-5 bioassay (IL-8 production) read?
Answer: 1.4 pM

Question: Which Neutralization Potency (IC50, pM), MRC-5 bioassay (IL-8 production) does the source give for B5 here?
Answer: 1360 pM

Question: For B6, which Neutralization Potency (IC50, pM), MRC-5 bioassay (IL-8 production) is on record?
Answer: 1880 pM

Each binder was assayed against T1, recombinant human IL-1α (human) (assay: SPR (Biacore), antibody captured, IL-1α in solution).

Question: With B1 as the binder, how does the Kd read?
Answer: 1.35 nM

Question: Which Kd does the source give for B2 here?
Answer: 0.032 nM

Question: B3 was tested. Which Kd did it give?
Answer: 0.031 nM

Question: Which Kd does the source give for B4 here?
Answer: 0.028 nM

Question: For B5, which Kd is on record?
Answer: 2.09 nM

Question: Which Kd does the source give for B6 here?
Answer: 1.34 nM
